# Molecular target: HCV NS5B (RNA-dependent RNA polymerase), JFH1 (Hepatitis C virus (JFH1))
# Experiment: proximity ligation
substance,measurement,value
ATG5-12 conjugate (from UniProt Q9H1Y0 1-275; O94817 1-140) (complex),PLA interaction signals per infected cell (signals per infected cell),380

# Source: paper PMC6171931
